The values that follow come from patent US20260055188A1.

The experiment addresses Human-TNFR2-His (manufacturer: SINO, CAT: 10417-H08H) (human) (UniProt P20333). In words: flow cytometry, bridging: CHOK1-18.2 cells (human Claudin18.2) + 150 nM isotype control + human TNFR2-His, anti-His FITC detection; irrelevant antibody (blank 13476). (In flow cytometry, cells or beads pass a laser one at a time.)

As for “Human IgG1 kappa Isotype control (Sino Biological, Cat. No.: HG1K) (antibody)”, the E1 Mean FITC-A amounted to 14400.
